According to publication PMC4721548, “Conformational heterogeneity of the Roc domains in C. tepidum Roc–COR and implications for human LRRK2 Parkinson mutations” (Bioscience Reports, 2015):

Target: the molecule itself
Assay: DEER (pulse EPR) inter-spin distance measurement; single-site MTSSL-labelled RocCOR, 50-100 uM protein, frozen at 50 K, X band; 150 mM NaCl, 30 mM Tris/HCl, 5 mM MgCl2, pH 7.5, 5% glycerol; apo, 1 mM GppNHp, GDP-AlFx (1 mM GDP, 1 mM AlCl3, 10 mM NaF) or 1 mM GDP; distances between the two symmetry-related labels of the dimer

B1: C. tepidum RocCOR (AA 412-946) C600R1 + Y558A (domain or fragment, Chlorobium tepidum, UniProt Q8KC98 412-946, looked up)
chain: DNPLESPPPEIVKQGKEAVRQYFQSIEEARSKGEALVHLQEIKVHLIGDGMAGKTSLLKQLIGETFDPKESQTHGLNVVTKQAPNIKGLENDDELKECLFHFWDFGGQEIMHASHQFFMTRSSVYMLLLDSRTDSNKHYWLRHIEKAGGKSPVIVVMNKIDENPSYNIEQKKINERFPAIENRFHRISCKNGDGVESIAKSLKSAVLHPDSIYGTPLAPSWIKVKEKLVEATTAQRYLNRTEVEKICNDSGITDPGERKTLLGYLNNLGIVLYFEALDLSEIYVLDPHWVTIGVYRIINSSKTKNGHLNTSALGYILNEEQIRCDEYDPAKNNKFTYTLLEQRYLLDIMKQFELCYDEGKGLFIIPSNLPTQIDNEPEITEGEPLRFIMKYDYLPSTIIPRLMIAMQHQILDRMQWRYGMVLKSQDHEGALAKVVAETKDSTITIAIQGEPRCKREYLSIIWYEIKKINANFTNLDVKEFIPLPGHPDELVEYKELLGLEKMGRDEYVSGKLEKVFSVSKMLDSVISKEERNKER
modifications: MTSSL spin label on the native cysteine at 600 (R1 side chain)
notes: Roco protein of Chlorobium tepidum, RocCOR tandem, AA 412-946; native Cys600 used for labelling; Y558 corresponds to Arg1441 of human LRRK2
  binding result: binds

B2: C. tepidum RocCOR (AA 412-946) C600R1 + L487A (domain or fragment, Chlorobium tepidum, UniProt Q8KC98 412-946, looked up)
chain: DNPLESPPPEIVKQGKEAVRQYFQSIEEARSKGEALVHLQEIKVHLIGDGMAGKTSLLKQLIGETFDPKESQTHGANVVTKQAPNIKGLENDDELKECLFHFWDFGGQEIMHASHQFFMTRSSVYMLLLDSRTDSNKHYWLRHIEKYGGKSPVIVVMNKIDENPSYNIEQKKINERFPAIENRFHRISCKNGDGVESIAKSLKSAVLHPDSIYGTPLAPSWIKVKEKLVEATTAQRYLNRTEVEKICNDSGITDPGERKTLLGYLNNLGIVLYFEALDLSEIYVLDPHWVTIGVYRIINSSKTKNGHLNTSALGYILNEEQIRCDEYDPAKNNKFTYTLLEQRYLLDIMKQFELCYDEGKGLFIIPSNLPTQIDNEPEITEGEPLRFIMKYDYLPSTIIPRLMIAMQHQILDRMQWRYGMVLKSQDHEGALAKVVAETKDSTITIAIQGEPRCKREYLSIIWYEIKKINANFTNLDVKEFIPLPGHPDELVEYKELLGLEKMGRDEYVSGKLEKVFSVSKMLDSVISKEERNKER
modifications: MTSSL spin label on the native cysteine at 600 (R1 side chain)
notes: Roco protein of Chlorobium tepidum, RocCOR tandem, AA 412-946; native Cys600 used for labelling; L487 corresponds to Ile1371 of human LRRK2
  binding result: binds

B3: C. tepidum RocCOR (AA 412-946) C600R1, spin-labelled at the native cysteine 600 in the Roc domain (domain or fragment, Chlorobium tepidum, UniProt Q8KC98 412-946, looked up)
chain: DNPLESPPPEIVKQGKEAVRQYFQSIEEARSKGEALVHLQEIKVHLIGDGMAGKTSLLKQLIGETFDPKESQTHGLNVVTKQAPNIKGLENDDELKECLFHFWDFGGQEIMHASHQFFMTRSSVYMLLLDSRTDSNKHYWLRHIEKYGGKSPVIVVMNKIDENPSYNIEQKKINERFPAIENRFHRISCKNGDGVESIAKSLKSAVLHPDSIYGTPLAPSWIKVKEKLVEATTAQRYLNRTEVEKICNDSGITDPGERKTLLGYLNNLGIVLYFEALDLSEIYVLDPHWVTIGVYRIINSSKTKNGHLNTSALGYILNEEQIRCDEYDPAKNNKFTYTLLEQRYLLDIMKQFELCYDEGKGLFIIPSNLPTQIDNEPEITEGEPLRFIMKYDYLPSTIIPRLMIAMQHQILDRMQWRYGMVLKSQDHEGALAKVVAETKDSTITIAIQGEPRCKREYLSIIWYEIKKINANFTNLDVKEFIPLPGHPDELVEYKELLGLEKMGRDEYVSGKLEKVFSVSKMLDSVISKEERNKER
modifications: MTSSL spin label on the native cysteine at 600 (R1 side chain)
notes: Roco protein of Chlorobium tepidum, RocCOR tandem, AA 412-946; native Cys600 used for labelling; Forms a homodimer; the row is the protomer with itself; also called C600R1^Roc
  binding result: binds
